Biological target: T1, glutathione S transferase (pGEX-4T-2 vector control lysate) (UniProt P08515 1-218 = GST)
T1 construct: In a bacterial lysate; also called GST; Control bacterial lysates encoding only glutathione S transferase
Assay: Western or dot blot, bacterial lysate

T1 sequence (P08515 whole entry): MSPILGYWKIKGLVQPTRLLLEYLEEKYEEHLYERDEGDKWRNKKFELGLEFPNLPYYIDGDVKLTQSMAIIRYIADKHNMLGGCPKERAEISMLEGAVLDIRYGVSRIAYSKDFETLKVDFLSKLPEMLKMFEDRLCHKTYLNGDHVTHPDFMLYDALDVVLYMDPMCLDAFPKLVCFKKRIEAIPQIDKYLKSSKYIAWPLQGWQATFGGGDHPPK

B1: monoclonal antibody mab 166 (antibody, V domains shown)
VH: QVQLKQSGPGLVQPSQSLSITCTVSGFSLTSYGVHWVRQSPGKGLEWLGVIWSGGDTDYNAAFISRLSISKDNSKSQLFFKMNSLRATDTAIYYCARNRGDIYYDFTYAMDYWGQGTSVTVSS
VL: DIQMTQSPASLSASVGETVTITCRASGNIQNYLAWYQQTQGKSPQLLVYSAKTLADGVPSRFSGSGSGTQYSLKINSLQPEDFGSYYCQHFWSTPYTFGGGTKLEIKR
notes: also called mabl66; m166
binding result: no binding

Source: US20050063985A1 (MCW RESEARCH FOUNDATION, published 2005)
